Test results published in patent US10906977B2, “Enhancing the therapeutic activity of immune checkpoint inhibitor” (Maine Medical Center Research Institute, priority 2016, dated 2021).

How the values were obtained:
[1] = target: T1, integrin α10β1 (Homo sapiens, UniProt O75578+P05556); experiment: Solid-phase integrin binding to denatured collagen
T1 construct: purchased R&D Systems
Method: (§1) Plates were coated with 25 μg/ml of native or denatured (boiled 15 minutes) collagen. Collagen epitope peptide PGF and Cont-peptides were immobilized at 100 ug/ml. Integrins (0-2.0 μg/ml) were diluted in binding buffer containing 20 mM Tris, 15 mM NaCl, 1 mM MgCl2, 0.2 mM MnCl2, 0.5% BSA pH 7.4 as described (13). Integrins were allowed to bind for 1 hr and plates washed and incubated with anti-integrin antibodies (1:100 dilution) for 1 hr. Plates were washed and incubated with HRP-labeled secondary antibodies (1:5000 dilution). In a second assay, integrins (0.5 μg/ml) were coated in binding buffer and plates were washed, blocked as before and denatured (boiled 15 minutes) collagen was added (0-10.0 μg/ml). Denatured collagen was detected with anti-collagen antibody (1:1000). For integrin blocking ELISAs, wells were coated with denatured collagen and pre-treated (0.1 μg/ml) with anti-HU177 or control antibody. Following washing, wells were incubated with integrins (2.0 μg/ml) and binding was detected as described. Assays were carried out at least 3 times.

[2] = target: T1, integrin α10β1; experiment: Solid-phase integrin binding to synthetic HU177 epitope (PGF peptide); details: peptide immobilized 100 ug/ml; FIG. 23F
Method: as §1

[3] = target: T2, integrin α2β1 (Homo sapiens, UniProt P05556+P17301); experiment: as above; details: peptide immobilized 100 ug/ml; FIG. 23F
T2 construct: purchased R&D Systems
Method: as §1

[4] = target: T3, integrin αvβ3 (Homo sapiens, UniProt P05106+P06756); experiment: as above; details: peptide immobilized 100 ug/ml; FIG. 23F
T3 construct: purchased R&D Systems (Minneapolis, Minn.)
Method: as §1

[5] = system: TGF-β; experiment: Serum cytokines in B16F10 tumor bearing mice injected with cPG peptide (ELISA); format: in vivo, C57BL/6 mice; details: injected 3× per week; serum after 14 days; FIG. 26A
Method: FIG. 26A-FIG. 26C is a series of bar charts showing that the injection of a peptide (cPG) containing the HU177 collagen epitope induces expression of the immune suppressive growth factor TGF-β in mouse circulation. C57BL/6 mice were injected subcutaneously with B16F10 melanoma cells (0.5×10^6) and tumors were allowed to form. Mice were next injected 3× per week with […] per mouse of cPG peptide. Serum was […] after 14 days. Serum was diluted in assay buffer and the relative levels of cytokines were examined by ELISA. FIG. 26A is a bar graph wherein data bars represent relative levels of TGF-β as determined by ELISA from control (DMSO) treated mouse and two different cPG peptide treated mice. FIG. 26B is a bar graph wherein data bars represent relative levels of IL-4 as determined by ELISA from control (DMSO) treated mouse and two different cPG peptide treated mice. FIG. 26C is a bar graph wherein data bars represent relative levels of IL-1β as determined by ELISA from control (DMSO) treated mouse and two different cPG peptide treated mice.
C57BL/6 mice were injected subcutaneously with B16F10 melanoma cells (0.5×10^6) and tumors were allowed to form. […] FIG. 26A is a bar graph wherein data bars represent relative levels of TGF-β as determined by ELISA from control (DMSO) treated mouse and two different cPG peptide treated mice. […]

[6] = system: PDL-1; experiment: PDL-1 protein in M21 melanoma cells on immobilized XL313 epitope (Western blot); format: cell-based, human; details: 15 minute incubation; vs uncoated wells; FIG. 15
Method: Integrin αvβ3 expressing melanoma cells (M21) were seeded on control uncoated wells or wells immobilized with the XL313 cryptic collagen epitope (RGDKGE (SEQ ID NO: 1)). Following a 15 minute incubation cell lysates were prepared. The relative levels of PDL-1 or loading control β-actin were assessed by Western blot.
Integrin αvβ3 expressing melanoma cells (M21) were seeded onto control uncoated wells or wells immobilized with the XL313 cryptic collagen epitope (RGDKGE (SEQ ID NO: 1)) (FIG. 15). Following an incubation period, cell lysates were prepared and relative levels of PDL-1 were assessed.

[7] = system: PDL-1; experiment: PDL-1 protein in cells attached to denatured collagen-IV (Western blot); format: cell-based; details: M21, CCL-49, HUVEC; vs native collagen-IV; FIG. 14
Method: FIG. 14A and FIG. 14B are blots of integrin αvβ3 expressing melanoma cells (M21 and […]) and FIG. 14C is a blot depicting that endothelial cells (HUVEC) were allowed to attach to well coated with either a non-αvβ3 binding ligand (native collagen-IV) or an αvβ3 binding ligand (denatured collagen-IV). Whole cell lysates were prepared and the relative levels of PDL-1 or loading control β-actin were assessed by Western blot.
Integrin αvβ3 expressing melanoma cells M21 (FIG. 14A) and CCL-49 (FIG. 14B) and endothelial cells (HUVEC) (FIG. 14C) were attached to wells coated with either a non-αvβ3 binding ligand (native collagen-IV) or an αvβ3 binding ligand (denatured collagen-IV). Whole cell lysates were prepared and the relative levels of PDL-1 or β-actin loading control were assessed.

[8] = system: SKOV-3 cells; experiment: Cell adhesion on native or denatured collagen; format: cell-based, human; details: FIG. 20A
Method: (§2) The wells of non-tissue culture forty-eight well cluster plates were coated for 12 hrs at 4° C. with 5 μg/ml of native or denatured (boiled 15 minutes) collagen prepared as described above. SKOV-3 and fibroblasts were suspended in adhesion buffer containing RPMI 1640, 1 mM MgCl2, 0.2 mM MnCl2 and 0.5% BSA (13) and 1×10^5 cells were added in the presence or absence of anti-HU177 or control antibodies (100 μg/ml). Cells were allowed to attach for 25 minutes. Non-attached cells were removed by washing and attached cells stained with crystal violet as described (13). Wells were washed and the cell-associated crystal violet was eluted with 100 ul per well of 10% acetic acid. Cell adhesion was quantified by measuring the optical density of the eluted crystal violet as described (15). Assays were completed at least 3×.

[9] = system: fibroblasts; experiment: Cell adhesion on native or denatured collagen; format: cell-based, human; details: FIG. 20B
Method: as §2

[10] = system: SKOV-3 cells; experiment: Transwell cell migration on native or denatured collagen; format: cell-based, human; details: FIG. 20C
Method: (§3) Transwell membranes (8.0 um pore size) were coated with 5 μg/ml of native or denatured collagen for 12 hrs at […] as described previously (13). Migration buffer containing RPMI 1640, 1 mM MgCl2, 0.2 mM MnCl2 and 0.5% BSA in the presence or absence of 5× concentrated serum free SKOV-3 CM or 20 ng/ml FGF-2 was placed in the lower chambers. SKOV-3 or fibroblasts (1×105) were resuspended in migration buffer containing RPMI 1640, 1 mM MgCl2, 0.2 mM MnCl2 and 0.5% BSA in the presence or absence of antibodies directed to the HU177 epitope, or α10β1, (10 μg/ml) or 100 uM of the MEK inhibitor ([…]). Cells were added to the top chamber and allowed to migrate from 2 to 4 hrs. Cells remaining on the top of the membranes were removed and cells that had migrated to the underside of the membrane were quantified by direct cell counts of crystal violet stained cells or by measuring the optical density of eluted cell-associated crystal violet dye as previously described (15). Assays were completed at least 3×.

[11] = system: fibroblasts; experiment: as above; format: cell-based, human; details: FIG. 20D
Method: as §3

[12] = target: T4, integrin α1β1 (Homo sapiens, UniProt P05556+P56199); experiment: Solid-phase integrin binding to denatured collagen; details: FIG. 23A
T4 construct: purchased R&D Systems (Minneapolis, Minn.)
Method: as §1

[13] = target: T2, integrin α2β1; experiment: Solid-phase integrin binding to denatured collagen; details: FIG. 23A
Method: as §1

[14] = target: T3, integrin αvβ3; experiment: Solid-phase integrin binding to denatured collagen; details: FIG. 23A
Method: as §1

T1 sequence (O75578 23-1122 limits assumed): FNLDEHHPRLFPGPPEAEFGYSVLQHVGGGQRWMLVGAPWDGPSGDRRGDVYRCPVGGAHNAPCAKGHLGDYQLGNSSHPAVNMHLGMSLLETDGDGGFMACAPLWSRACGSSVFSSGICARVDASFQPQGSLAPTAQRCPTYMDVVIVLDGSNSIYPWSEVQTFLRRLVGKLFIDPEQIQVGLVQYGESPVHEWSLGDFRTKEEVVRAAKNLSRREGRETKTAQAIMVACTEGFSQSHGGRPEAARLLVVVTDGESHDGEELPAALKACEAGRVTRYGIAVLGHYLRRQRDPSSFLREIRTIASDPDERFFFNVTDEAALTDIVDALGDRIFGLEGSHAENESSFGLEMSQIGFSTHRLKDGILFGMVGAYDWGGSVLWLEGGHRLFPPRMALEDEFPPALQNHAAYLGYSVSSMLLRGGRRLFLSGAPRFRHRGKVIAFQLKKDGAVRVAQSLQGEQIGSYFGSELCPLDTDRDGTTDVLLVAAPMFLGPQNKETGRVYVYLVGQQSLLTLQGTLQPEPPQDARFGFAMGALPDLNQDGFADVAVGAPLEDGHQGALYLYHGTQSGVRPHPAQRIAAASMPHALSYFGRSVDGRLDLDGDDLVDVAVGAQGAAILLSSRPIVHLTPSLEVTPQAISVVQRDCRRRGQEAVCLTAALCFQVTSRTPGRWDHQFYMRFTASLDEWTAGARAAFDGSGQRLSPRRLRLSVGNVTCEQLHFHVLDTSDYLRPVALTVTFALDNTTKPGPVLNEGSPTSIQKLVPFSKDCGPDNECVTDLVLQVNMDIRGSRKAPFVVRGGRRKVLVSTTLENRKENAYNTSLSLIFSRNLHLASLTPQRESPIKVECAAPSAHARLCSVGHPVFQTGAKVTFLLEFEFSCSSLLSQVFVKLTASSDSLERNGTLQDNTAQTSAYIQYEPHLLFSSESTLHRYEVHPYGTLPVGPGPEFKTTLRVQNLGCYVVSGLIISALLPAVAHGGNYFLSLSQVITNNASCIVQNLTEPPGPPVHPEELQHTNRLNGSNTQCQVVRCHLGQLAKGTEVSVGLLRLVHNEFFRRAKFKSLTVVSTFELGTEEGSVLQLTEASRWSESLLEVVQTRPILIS
T1 sequence (P05556 21-728 limits assumed): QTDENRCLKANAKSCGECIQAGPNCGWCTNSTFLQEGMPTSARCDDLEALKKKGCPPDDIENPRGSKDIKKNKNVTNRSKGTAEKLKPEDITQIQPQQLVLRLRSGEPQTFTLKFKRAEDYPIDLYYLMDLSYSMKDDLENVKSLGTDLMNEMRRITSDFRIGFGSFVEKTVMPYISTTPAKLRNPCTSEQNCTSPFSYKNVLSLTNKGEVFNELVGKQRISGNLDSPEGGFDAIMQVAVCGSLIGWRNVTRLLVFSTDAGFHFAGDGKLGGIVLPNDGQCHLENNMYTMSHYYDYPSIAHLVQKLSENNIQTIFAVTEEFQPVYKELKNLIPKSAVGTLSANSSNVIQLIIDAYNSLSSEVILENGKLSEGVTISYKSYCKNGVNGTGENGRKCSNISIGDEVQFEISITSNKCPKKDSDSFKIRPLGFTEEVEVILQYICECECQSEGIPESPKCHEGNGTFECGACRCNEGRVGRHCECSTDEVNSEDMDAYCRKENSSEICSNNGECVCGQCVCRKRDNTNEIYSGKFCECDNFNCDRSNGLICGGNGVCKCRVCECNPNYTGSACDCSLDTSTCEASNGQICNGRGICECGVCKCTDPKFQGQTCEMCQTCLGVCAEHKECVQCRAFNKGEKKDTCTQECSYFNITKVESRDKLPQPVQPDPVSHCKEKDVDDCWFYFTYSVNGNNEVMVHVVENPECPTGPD
T3 sequence (P06756 31-992 limits assumed): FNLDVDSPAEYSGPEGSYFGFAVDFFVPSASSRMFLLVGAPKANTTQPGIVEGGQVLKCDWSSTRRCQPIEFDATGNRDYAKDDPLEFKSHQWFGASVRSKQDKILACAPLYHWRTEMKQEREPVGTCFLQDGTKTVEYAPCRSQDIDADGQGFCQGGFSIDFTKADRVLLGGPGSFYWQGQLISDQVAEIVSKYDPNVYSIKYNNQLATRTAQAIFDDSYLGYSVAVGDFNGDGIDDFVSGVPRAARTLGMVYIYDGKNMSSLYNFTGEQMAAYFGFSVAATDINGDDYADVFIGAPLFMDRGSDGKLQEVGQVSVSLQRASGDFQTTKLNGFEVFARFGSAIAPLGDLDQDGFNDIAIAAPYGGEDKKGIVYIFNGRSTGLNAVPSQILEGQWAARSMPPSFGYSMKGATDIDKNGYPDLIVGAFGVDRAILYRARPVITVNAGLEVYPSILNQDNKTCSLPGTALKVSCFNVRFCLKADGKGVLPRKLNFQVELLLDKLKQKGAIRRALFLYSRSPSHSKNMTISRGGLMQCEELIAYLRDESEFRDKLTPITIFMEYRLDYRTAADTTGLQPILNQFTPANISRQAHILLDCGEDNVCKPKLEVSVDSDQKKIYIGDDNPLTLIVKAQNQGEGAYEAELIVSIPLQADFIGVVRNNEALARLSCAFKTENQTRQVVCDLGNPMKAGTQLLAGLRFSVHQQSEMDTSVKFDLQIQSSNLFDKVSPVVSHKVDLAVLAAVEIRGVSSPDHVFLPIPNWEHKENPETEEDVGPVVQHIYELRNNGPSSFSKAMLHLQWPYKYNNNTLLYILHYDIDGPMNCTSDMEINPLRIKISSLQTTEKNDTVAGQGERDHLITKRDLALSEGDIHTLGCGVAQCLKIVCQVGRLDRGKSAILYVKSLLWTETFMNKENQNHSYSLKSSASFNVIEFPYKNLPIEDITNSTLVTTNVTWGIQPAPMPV
T3 sequence (P05106 27-718 limits assumed): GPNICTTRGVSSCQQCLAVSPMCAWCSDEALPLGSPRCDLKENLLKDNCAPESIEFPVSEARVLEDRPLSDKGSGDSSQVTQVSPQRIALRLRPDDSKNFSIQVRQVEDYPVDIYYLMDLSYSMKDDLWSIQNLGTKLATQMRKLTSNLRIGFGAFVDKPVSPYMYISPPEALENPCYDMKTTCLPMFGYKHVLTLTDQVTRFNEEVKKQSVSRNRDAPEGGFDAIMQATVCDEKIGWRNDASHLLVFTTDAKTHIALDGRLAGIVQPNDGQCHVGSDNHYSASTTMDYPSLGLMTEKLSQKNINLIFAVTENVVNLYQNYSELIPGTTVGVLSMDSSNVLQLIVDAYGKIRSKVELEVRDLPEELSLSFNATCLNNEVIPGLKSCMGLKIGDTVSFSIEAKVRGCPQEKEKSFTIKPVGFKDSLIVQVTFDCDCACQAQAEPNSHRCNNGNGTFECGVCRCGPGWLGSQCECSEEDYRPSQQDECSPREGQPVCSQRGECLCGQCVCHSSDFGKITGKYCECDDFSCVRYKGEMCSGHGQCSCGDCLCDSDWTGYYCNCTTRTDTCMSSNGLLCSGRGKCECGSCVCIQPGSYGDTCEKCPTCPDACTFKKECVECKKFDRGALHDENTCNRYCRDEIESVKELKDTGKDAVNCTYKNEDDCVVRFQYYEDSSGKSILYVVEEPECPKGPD
T2 sequence (P17301 30-1132 limits assumed): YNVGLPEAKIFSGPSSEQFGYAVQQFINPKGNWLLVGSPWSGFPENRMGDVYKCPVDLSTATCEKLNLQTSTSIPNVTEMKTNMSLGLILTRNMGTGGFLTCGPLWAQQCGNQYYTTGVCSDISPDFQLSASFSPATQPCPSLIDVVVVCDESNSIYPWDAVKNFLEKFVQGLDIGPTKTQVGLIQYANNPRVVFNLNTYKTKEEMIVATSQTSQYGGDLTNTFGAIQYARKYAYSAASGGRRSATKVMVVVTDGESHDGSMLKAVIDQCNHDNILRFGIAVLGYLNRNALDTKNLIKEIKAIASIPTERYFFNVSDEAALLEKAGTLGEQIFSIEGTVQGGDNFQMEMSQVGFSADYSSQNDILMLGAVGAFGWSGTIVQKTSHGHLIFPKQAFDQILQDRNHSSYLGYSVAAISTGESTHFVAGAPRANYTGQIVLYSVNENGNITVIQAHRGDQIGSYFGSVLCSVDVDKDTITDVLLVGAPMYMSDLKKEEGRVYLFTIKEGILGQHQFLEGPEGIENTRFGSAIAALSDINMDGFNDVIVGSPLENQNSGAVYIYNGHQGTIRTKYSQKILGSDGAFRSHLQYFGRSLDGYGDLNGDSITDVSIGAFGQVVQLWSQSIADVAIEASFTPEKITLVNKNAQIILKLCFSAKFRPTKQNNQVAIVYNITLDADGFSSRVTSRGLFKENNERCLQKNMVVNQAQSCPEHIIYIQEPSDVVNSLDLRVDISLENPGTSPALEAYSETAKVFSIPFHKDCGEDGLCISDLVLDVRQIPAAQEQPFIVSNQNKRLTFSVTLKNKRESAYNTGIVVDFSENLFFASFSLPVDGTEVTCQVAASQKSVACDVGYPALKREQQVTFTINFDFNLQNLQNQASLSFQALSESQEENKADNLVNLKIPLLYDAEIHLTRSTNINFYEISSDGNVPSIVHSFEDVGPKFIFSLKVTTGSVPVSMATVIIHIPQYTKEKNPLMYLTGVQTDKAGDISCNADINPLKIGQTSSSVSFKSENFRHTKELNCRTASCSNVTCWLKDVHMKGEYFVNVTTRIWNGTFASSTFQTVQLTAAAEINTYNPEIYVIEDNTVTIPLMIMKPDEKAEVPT
T2 sequence (P05556 21-728 limits assumed): as the sequence (P05556 21-728 limits assumed) above

Substance: CPGFPGFC [PGF peptide]
- competition of binding of α10β1 to denatured collagen ([1]; soluble peptide, FIG. 23G): approximately 60%
- binding of α10β1 to the synthetic HU177 epitope, relative to α2β1 [2]: 4 fold
- direct binding of α2β1 to the synthetic HU177 epitope [3]: bound
- direct binding of αvβ3 to the synthetic HU177 epitope [4]: failed to bind
- expression of TGF-β in mouse serum [5]: induce the expression

Substance: RGDKGE (immobilized on wells) [XL313 epitope]
- levels of PDL-1 protein in M21 melanoma cells following binding [6]: enhanced levels of PDL-1 protein

Substance: denatured collagen-IV: αvβ3 binding ECM ligand coated on wells
- levels of PDL-1 protein in melanoma and endothelial cells following binding [7]: enhanced levels of PDL-1 protein

Substance: denatured collagen: collagen type-I denatured by boiling the solution for 15 minutes
- enhancement of SKOV-3 adhesion as compared to native collagen [8]: 38%
- enhancement of fibroblast adhesion as compared to native collagen [9]: 29%
- enhancement of SKOV-3 migration as compared to native collagen [10]: 34%
- enhancement of fibroblast migration as compared to native collagen [11]: 19%
- binding of denatured collagen and integrin α10β1 ([1]; FIG. 23A, 23B): dose dependently bound
- binding of integrin α1β1 to denatured collagen [12]: minimal interactions
- binding of integrin α2β1 to denatured collagen [13]: dose dependently bound
- binding of integrin αvβ3 to denatured collagen [14]: dose dependently bound
